Test results from patent US20200010523A1 (INSTITUTE FOR CANCER RESEARCH, published 2020).

Target: T1, human Müllerian-inhibiting substance type II receptor (MISIIR) (human, UniProt Q16671 18-573)
T1 sequence (looked up): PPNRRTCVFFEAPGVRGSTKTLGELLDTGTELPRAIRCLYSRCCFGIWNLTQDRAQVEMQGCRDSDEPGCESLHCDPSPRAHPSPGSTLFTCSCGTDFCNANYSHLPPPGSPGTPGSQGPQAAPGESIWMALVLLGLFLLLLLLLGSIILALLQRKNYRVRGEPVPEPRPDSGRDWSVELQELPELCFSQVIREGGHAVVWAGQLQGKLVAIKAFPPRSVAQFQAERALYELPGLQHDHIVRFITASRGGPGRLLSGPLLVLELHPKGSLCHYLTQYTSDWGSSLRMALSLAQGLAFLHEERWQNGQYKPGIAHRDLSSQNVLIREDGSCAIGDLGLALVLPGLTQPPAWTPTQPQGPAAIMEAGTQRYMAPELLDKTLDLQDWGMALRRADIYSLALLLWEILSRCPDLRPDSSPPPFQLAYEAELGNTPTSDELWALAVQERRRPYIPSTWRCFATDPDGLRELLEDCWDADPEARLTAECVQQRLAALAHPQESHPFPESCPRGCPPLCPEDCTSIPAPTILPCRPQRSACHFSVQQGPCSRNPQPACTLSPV
Assay: cell-based or functional assay

B1: Müllerian-inhibiting substance (MIS) (ligand)
chain: SAGATAADGPCALRELSVDLRAERSVLIPETYQANNCQGVCGWPQSDRNPRYGNHVVLLLKMQVRGAALARPPCCVPTAYAGKLLISLSEERISAHHVPNMVATECGCR
For B1, the “expression of a luciferase reporter gene over background levels, 10 nM, 3-day assay, P19 reporter cell line” value was roughly 10 fold.
